Experimental data taken from IntAct's records for PubMed 11375976.

Molecular target: TERF1, P54274-2
Sequence (P54274 other isoform, or with tags, fused parts or gaps): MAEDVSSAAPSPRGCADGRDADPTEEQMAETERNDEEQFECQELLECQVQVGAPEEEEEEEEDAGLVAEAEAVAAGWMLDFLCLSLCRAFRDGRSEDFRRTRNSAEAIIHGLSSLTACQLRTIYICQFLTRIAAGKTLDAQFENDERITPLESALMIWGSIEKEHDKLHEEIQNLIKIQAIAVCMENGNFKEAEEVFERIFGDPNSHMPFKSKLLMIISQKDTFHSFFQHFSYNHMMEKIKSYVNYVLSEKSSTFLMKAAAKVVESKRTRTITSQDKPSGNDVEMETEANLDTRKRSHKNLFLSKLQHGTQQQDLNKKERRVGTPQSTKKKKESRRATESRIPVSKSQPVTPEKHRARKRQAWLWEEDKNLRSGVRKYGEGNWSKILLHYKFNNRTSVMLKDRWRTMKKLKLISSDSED

## Serine-protein kinase ATM (Homo sapiens), Q13315 D2870A;N2875K
  effect of a mutation on the interaction: disrupting interaction
